# Reference: the supplement of paper PMC12764529
# ± gives the half width of the 95% confidence interval.
# Assay: folding stability dG unfold (combined trypsin and chymotrypsin); higher = more stable
# Method in brief: (§1)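 Only designs with AlphaFold2 dimer inter-PAE above 15 were retained; each was a mini-protein under 80 residues with no cysteine, in a PA-tagged cDNA display construct. After digestion with trypsin and chymotrypsin and sequencing, K50 was inferred by Bayesian fitting of counts, and unfolding free energy was derived per protease or combined against a sequence-predicted unfolded-state K50 and a shared folded-state K50.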
row,Sequence,folding stability dG unfold [kcal/mol]
1,SAGGSAGGMTVEIDLDLEVPDGGVRLERLVVDPERPLVLAFLTLEDGTKRVIPFESLEELLERLSAGGSAGG [r6_547_TrMRF],1.23 ± 0.11
2,SAGGSAGGSAGGSMSTINFPSKEEIEAYLKKLGLKNVKLPWYPNNNVMDTSDIEKDILESAGGSAGGSAGGS [r4_101_JUSTAS],1.14 ± 0.058
3,SKKKITIEVEVEKDEETGEYTVRIRITVDGKEIEIEIKAKTPEEAKEKAKKLAEELLKKYPDKVKIEIKPSA [r9_1148_TrROS_Hall],2.21 ± 0.15
4,SAGGSAGGSAGQTLLVEVNGQLAEITIDPDVPGQITITLPNGEQITLEVRLEPPPPPEEESAGGSAGGSAGG [r17_85_TrROS_Hall],1.6 ± 0.16
5,SAMSAEELAERLRERLKKLAEEEGLEVEITVTVEENEDGSLTVTITVKSEEEAERIKEKLPEGVKVEKKSAG [r14_491_TrROS_Hall],2.14 ± 0.21
6,PDDVYVMFEIEPTNDGIKIPIKVRVPGKPIAEVEVPVDPDDGKIKIMVKFPSPEALDEAEDLLKELGIKPTS [r1_455_TrROS],0.537 ± 0.21
7,SAGGSAGGSAMLLPSEEEAEKAAAELRAKTGWRVTVEKVGTGEDGTVVYRLTVVPPDLPLESAGGSAGGSAG [r3_59_JUSTAS],3.12 ± 0.06
8,SALPPEVVRKLALDALRALYPDEPFVPVSMEVDPETGEVTVLVARPGPDDSLRLVRRTFRVLDDGRVLGSAG [r14_183_TrMRF],2.98 ± 0.062
9,SAGGSASLTVVYPGGETRTFDVSAVSPEFLRAHPDVTVTLPGGEERRLAGDTELSPAGPHTITVPASAGGSA [r15_733_JUSTAS],2.06 ± 0.088
10,SAGGSAGGSMEENKPVVTLTTVEIYIESEVDPSLGKPLNPKKITVTLTTTVPPDGSTSTSTLFSAGGSAGGS [r12_438_JUSTAS],1.45 ± 0.19
11,SAGGSAGGDSIEFIIPYDDMPKEEAKRRVRWIANGFAEHNPGKPIEIEIHVIPVPPPPSPEDKNSAGGSAGG [r6_729_TrROS],-0.163 ± 0.16
12,SAGGSAGNPVPKVTVTDVTFGIPESDPSLLEKKAEEVAAELNKPELTVTITEYDPATYTFTITVVSSAGGSA [r15_563_JUSTAS],1.48 ± 0.059
13,SAGGSAGGSKTLKIEIPVEEESEEEARKKIKEALKELGIKEITEEDIKIERKEDGTLRAEIKLSAGGSAGGS [r12_122_TrROS_Hall],0.817 ± 0.17
14,SAGGPKWVIIIEIEIKPKNNGKEFEFTFVFPPGQTLDEIKSFIKEFAPPGHKVELKIEDIQLVPPDDSAGGS [r16_393_TrROS],2.4 ± 0.12
15,SSPVSFSTSTTSPPSPSSLPDGSTLSTTTTTYTAPDGSRYTVTSTTLTPPTGPATPVSTTTTSTGSSGPSSA [r9_394_JUSTAS],0.872 ± 0.046
16,SAGGSAGGMIIQEVEEFKDKSEEEVKKKMLEELKKKYPKSYKVKITVTKNPSGKYTVTVTITPNSAGGSAGG [r6_964_JUSTAS],2.51 ± 0.071
17,SAGGPVTTVSVSGFVLPDGSRALLVTVATYYPDGYVAVPPVLVLVYPNGESEASTSTLVVKVPGGALSAGGS [r16_505_TrMRF],2.79 ± 0.04
18,SAGGSAGGSAEKRIVAKVTEVRENEDGEKTVRVRITLPNGEELEVEVRRVERVGDYLVIELSAGGSAGGSAG [r3_261_TrROS_Hall],1.29 ± 0.089
19,SAGGSAGGSKKPKFKVKKVEVVEENGKLRIRIVLEDGKKIEIEIKGLSKEEIEKKAKELLKKLSAGGSAGGS [r20_181_TrROS_Hall],3.66 ± 0.22
20,SGMLLTVATKTEESELPDGGKKKVTTTTVELSGPHSVTYTPVTTLAPDGTVPASTTTVYDTVSGETTTAPSA [r9_641_JUSTAS],0.145 ± 0.074
21,YMVFIRIEVEDPKNGEEKAEIPIPIPIPPGDLKNMPPEDREKMIEEAKYFAEELAEEKGNVKIKPEIQWFES [r1_115_TrROS],-0.0293 ± 0.23

# Assay: folding stability dG unfold from chymotrypsin proteolysis; higher = more stable
# Method in brief: as §1
row,Sequence,folding stability dG unfold [kcal/mol]
1,SAGGSASSVPVELEYETPGDPSSSSYTLEPVDLPPELASRIVEVTAKVEKEGGKLKITATVTLTDLSAGGSA [r15_321_JUSTAS],0.137 ± 0.25
2,SAGGSAGGKLKIEITLEKVKNPETKEYYYRLRVTIYNENGKKIKEIEVVAKSKEEALEALKKLLSAGGSAGG [r6_974_TrROS_Hall],5.24 ± 0.068
3,SAGGSAMPDNMKPVGSIPMVYLVPDGWIMRINYEYWKNPESGMWMINMDIEVFPLPKNDPELLKAISAGGSA [r15_207_TrROS],2.65 ± 0.093
4,SAGMVKIEIEVKVEKDEDGRLRVTVRITIYDEKTGEKLKEIEIEVEAPSEEEAERAARKKAEELLKELSAGG [r19_255_TrROS_Hall],2.58 ± 0.087
5,SAGGSAEVERFEIPVTSEEELEKLIEELKKAPGVLSVEKTPDGTLVVTVPKGKSDIVEEAAKKAGLSAGGSA [r15_834_JUSTAS],3.17 ± 0.11
6,SAPVRGPDGSVFEVDDITFDPDTRTVTVTTPEGTYTFPVPPGWVVEFDPVTKEITVRPLPDLSPENNPFPSA [r9_551_TrMRF],2.84 ± 0.06
7,SAGGSAGGSAGSYTVEPVELDDDSTLIRYTYPTDPNAVFPVVTVYPDGPVLTEPVVYSSSSAGGSAGGSAGG [r11_747_JUSTAS],0.0377 ± 0.11
8,SAGGSAGGSAGGSMIVITTEGEEVRNSLPSSYNILETKEDPSVPSYTYDIKKPGTGKEESAGGSAGGSAGGS [r4_435_JUSTAS],-0.979 ± 0.71
9,SAGKKKKEVKKITLVIEFPEEMTEEELKERAEKLAEELKKKFPKIKKIEVKVEKKDGKLIVTVEIEIEKSAG [r5_446_TrROS_Hall],1.78 ± 0.079
10,SAGGSAGGSASFTTTPVQFPDNTRVTTVTLDPETGTTIATVTSPSATSLVTIPGDTTTLTGSSAGGSAGGSA [r18_212_JUSTAS],-0.246 ± 0.087
11,SAGGEVRIEVEIEVDPETGTVTVRAKIERDGKLFEVEMTLRVEPEEKPEKAPEVTVTVTVVFKPEGKSAGGS [r16_108_TrROS_Hall],2.54 ± 0.076
12,SAGGSAGGSMIGTADGTPVPFEVTHAEVYEVTLPNGEKYYLIKAYDPSTGKYFVALIPAKDIASAGGSAGGS [r12_823_TrMRF],2.84 ± 0.052
13,SAGGATVTVTEYPLPTGTLYRVTVTVGSKTTTFTVPPGVSLEEIKEIVEKEVGVDLTTVTTTTVSTAAASAG [r5_181_JUSTAS],3.83 ± 0.062
14,SAGGSAGGMLRIKTKDGKEIEITDDEVRIRFADGKKTVTVPAEKLKEALEAAEKAGMEIVEIEPSAGGSAGG [r6_337_TrROS_Hall],1.9 ± 0.057
15,SAGGSAGGMPLLPLNKEVRVLSVSYIPPNDVVVVRVKGLDNVESTILIPVSLAKNIPISPDSTLSAGGSAGG [r6_910_TrMRF],0.44 ± 0.059
16,SAGMTVTLTVSEAEFNALFGPDKDAEAIAAHLESQGYVIKSISTTSSTDPETGGRTLTITLDVEPPLVSAGG [r19_376_JUSTAS],3.603 ± 0.036
17,SAGTIIIPMKEIREELGYPPGSPPSQMRDRIRDLIRRLYPRGIRPTDIDIESNGDNWYITVDIKLPPGASAG [r14_158_TrROS],2.76 ± 0.053
18,SAGGSVEEIAEELAKQPSYTKVTVTLFVDPDGTARVVITDVENGKTYTVPLPPAATPVGTLTLPVESAGGSA [r2_74_JUSTAS],1.68 ± 0.046
19,SAGGSAGGLEDVIRALGLELLEREKIGEKIRILARDPNADRLYEVTVTLEGPPEIEITPLPPGLSAGGSAGG [r6_195_JUSTAS],3.225 ± 0.022
20,SAGGSAGGSAGGSVVTRLPNGSYRYTVTRVSFDPKTGTWSSETTVLTVPPDRPVEIPPGSAGGSAGGSAGGS [r4_48_JUSTAS],2.26 ± 0.11
21,SAGGSAGGSAGGKVTKVILYPLPGGKVRLIIYGDDGKPYFFETSFEDLKNFPNIPFIILPSAGGSAGGSAGG [r7_238_TrMRF],2.27 ± 0.049

row,Sequence,folding stability dG unfold [kcal/mol]
1,SAGGSAGGMTVEIDLDLEVPDGGVRLERLVVDPERPLVLAFLTLEDGTKRVIPFESLEELLERLSAGGSAGG [r6_547_TrMRF],1.21 ± 0.032
2,SAGGSAGGSAGGSMSTINFPSKEEIEAYLKKLGLKNVKLPWYPNNNVMDTSDIEKDILESAGGSAGGSAGGS [r4_101_JUSTAS],1.29 ± 0.03
3,SKKKITIEVEVEKDEETGEYTVRIRITVDGKEIEIEIKAKTPEEAKEKAKKLAEELLKKYPDKVKIEIKPSA [r9_1148_TrROS_Hall],1.98 ± 0.029
4,SAGGSAGGSAGQTLLVEVNGQLAEITIDPDVPGQITITLPNGEQITLEVRLEPPPPPEEESAGGSAGGSAGG [r17_85_TrROS_Hall],1.39 ± 0.17
5,SAMSAEELAERLRERLKKLAEEEGLEVEITVTVEENEDGSLTVTITVKSEEEAERIKEKLPEGVKVEKKSAG [r14_491_TrROS_Hall],2.37 ± 0.1
6,PDDVYVMFEIEPTNDGIKIPIKVRVPGKPIAEVEVPVDPDDGKIKIMVKFPSPEALDEAEDLLKELGIKPTS [r1_455_TrROS],0.42 ± 0.12
7,SAGGSAGGSAMLLPSEEEAEKAAAELRAKTGWRVTVEKVGTGEDGTVVYRLTVVPPDLPLESAGGSAGGSAG [r3_59_JUSTAS],3.234 ± 0.019
8,SALPPEVVRKLALDALRALYPDEPFVPVSMEVDPETGEVTVLVARPGPDDSLRLVRRTFRVLDDGRVLGSAG [r14_183_TrMRF],3.07 ± 0.071
9,SAGGSASLTVVYPGGETRTFDVSAVSPEFLRAHPDVTVTLPGGEERRLAGDTELSPAGPHTITVPASAGGSA [r15_733_JUSTAS],1.8 ± 0.083
10,SAGGSAGGSMEENKPVVTLTTVEIYIESEVDPSLGKPLNPKKITVTLTTTVPPDGSTSTSTLFSAGGSAGGS [r12_438_JUSTAS],1.67 ± 0.17
11,SAGGSAGGDSIEFIIPYDDMPKEEAKRRVRWIANGFAEHNPGKPIEIEIHVIPVPPPPSPEDKNSAGGSAGG [r6_729_TrROS],-0.467 ± 0.66
12,SAGGSAGNPVPKVTVTDVTFGIPESDPSLLEKKAEEVAAELNKPELTVTITEYDPATYTFTITVVSSAGGSA [r15_563_JUSTAS],1.89 ± 0.07
13,SAGGSAGGSKTLKIEIPVEEESEEEARKKIKEALKELGIKEITEEDIKIERKEDGTLRAEIKLSAGGSAGGS [r12_122_TrROS_Hall],0.343 ± 0.11
14,SAGGPKWVIIIEIEIKPKNNGKEFEFTFVFPPGQTLDEIKSFIKEFAPPGHKVELKIEDIQLVPPDDSAGGS [r16_393_TrROS],2.41 ± 0.039
15,SSPVSFSTSTTSPPSPSSLPDGSTLSTTTTTYTAPDGSRYTVTSTTLTPPTGPATPVSTTTTSTGSSGPSSA [r9_394_JUSTAS],1.08 ± 0.043
16,SAGGSAGGMIIQEVEEFKDKSEEEVKKKMLEELKKKYPKSYKVKITVTKNPSGKYTVTVTITPNSAGGSAGG [r6_964_JUSTAS],2.65 ± 0.059
17,SAGGPVTTVSVSGFVLPDGSRALLVTVATYYPDGYVAVPPVLVLVYPNGESEASTSTLVVKVPGGALSAGGS [r16_505_TrMRF],3.008 ± 0.011
18,SAGGSAGGSAEKRIVAKVTEVRENEDGEKTVRVRITLPNGEELEVEVRRVERVGDYLVIELSAGGSAGGSAG [r3_261_TrROS_Hall],1.2 ± 0.048
19,SAGGSAGGSKKPKFKVKKVEVVEENGKLRIRIVLEDGKKIEIEIKGLSKEEIEKKAKELLKKLSAGGSAGGS [r20_181_TrROS_Hall],3.93 ± 0.2
20,SGMLLTVATKTEESELPDGGKKKVTTTTVELSGPHSVTYTPVTTLAPDGTVPASTTTVYDTVSGETTTAPSA [r9_641_JUSTAS],-0.2 ± 0.058
21,YMVFIRIEVEDPKNGEEKAEIPIPIPIPPGDLKNMPPEDREKMIEEAKYFAEELAEEKGNVKIKPEIQWFES [r1_115_TrROS],-0.226 ± 0.66
